Source: US20090149339A1 (published 2009)
Ends that are not written are not given here. * marks the point of attachment. Biotin = O=C1N[C@H]2[C@H](CS[C@H]2CCCCC(=O)*)N1

Tests used:
[1] = target: T1, GST-NeDLG PDZ domain fusion protein (presynaptic protein sao102, neuroendocrine-dlg; PDZ domains 1-2 of 3) (UniProt P08515 1-218 = GST); test: G assay
T1 construct: also called NeDLG1

[2] = target: T2, GST-SYN1a PDZ domain fusion protein (alpha1-syntrophin AA96-189; PDZ domain 1 of 1) (UniProt P08515 1-218 = GST); test: G assay
T2 construct: also called SYN 1 alpha; SYNTR 1 alpha

[3] = target: T3, GST-CASK PDZ domain fusion protein (CASK AA495-584; PDZ domain 1 of 1) (mouse, UniProt P08515 1-218 = GST); test: A/G assays
T3 construct: also called mCASK

[4] = target: GST-LIM PDZ domain fusion protein (Human LIM protein AA29-112; PDZ domain 1 of 1) (human, UniProt P08515 1-218 = GST); test: A/G assays
[5] = target: GST-LIMK2 PDZ domain fusion protein (human LIM domain kinase 2 AA185-275; PDZ domain 1 of 1) (human, UniProt P08515 1-218 = GST); test: A/G assays
[6] = target: T4, GST-MPP2 PDZ domain fusion protein (maguk p55 subfamily member 2 (DLG2) AA185-273; PDZ domain 1 of 1) (UniProt P08515 1-218 = GST); test: A/G assays
T4 construct: also called MMP2

[7] = target: GST-NOS1 PDZ domain fusion protein (human neuronal nitric oxide synthase; PDZ domain 1 of 1) (human, UniProt P08515 1-218 = GST); test: A/G assays
[8] = target: GST-AF6 PDZ domain fusion protein (af-6 protein AA985-1077; PDZ domain 1 of 1) (UniProt P08515 1-218 = GST); test: A/G assays
[9] = target: GST-PTN-4 PDZ domain fusion protein (protein-tyrosine phosphatase meg1 AA774-862; PDZ domain 1 of 1) (UniProt P08515 1-218 = GST); test: A/G assays
[10] = target: GST-prIL16 PDZ domain fusion protein (putative interleukin 16 precursor AA170-383; PDZ domains 1-2 of 2) (UniProt P08515 1-218 = GST); test: A/G assays
[11] = target: T5, GST-41.8 kD PDZ domain fusion protein (hypothetical 41.8 kD protein AA4-85; PDZ domain 1 of 1) (UniProt P08515 1-218 = GST); test: A/G assays
T5 construct: also called hypoth

[12] = target: T6, GST-KIAA0559 PDZ domain fusion protein (KIAA0559 AA766-870; PDZ1 of 1) (UniProt P08515 1-218 = GST); test: A/G assays
T6 construct: also called K559

[13] = target: GST-MPP1 PDZ domain fusion protein (55 Kd erythrocyte membrane protein AA101-186; PDZ domain 1 of 1) (UniProt P08515 1-218 = GST); test: A/G assays
[14] = target: T7, GST-RGS12 PDZ domain fusion protein (human regulator of G-protein signalling 12 AA35-103; PDZ domain 1 of 1) (human, UniProt P08515 1-218 = GST); test: A/G assays
T7 construct: also called RSG12

[15] = target: T8, GST-KIAA0316 PDZ domain fusion protein (KIAA0316 AA197-284; PDZ domain 1 of 1) (UniProt P08515 1-218 = GST); test: A/G assays
T8 construct: also called K316

[16] = target: T9, GST-DVL1 PDZ domain fusion protein (human dishevelled segment polarity protein homolog AA248-340); PDZ domain … (human, UniProt P08515 1-218 = GST); test: A/G assays
[17] = target: T10, GST-TAX40 PDZ domain fusion protein (human tax interaction protein 40 AA35-137; PDZ domain 1 of 1) (human, UniProt P08515 1-218 = GST); test: A/G assays
T10 construct: also called TX 40

[18] = target: GST-TIAM1 PDZ domain fusion protein (T-lymphoma invasion and metastasis inducing protein 1 AA1001-1088); PDZ 1 … (UniProt P08515 1-218 = GST); test: A/G assays
[19] = target: T11, GST-KIAA0303 PDZ domain fusion protein (KIAA0303 AA652-742; PDZ domain 1 of 1) (UniProt P08515 1-218 = GST); test: A/G assays
T11 construct: also called K303

[20] = target: T12, GST-CBP PDZ domain fusion protein (Cytohesin binding protein HE AA85-175; PDZ domain 1 of 1) (UniProt P08515 1-218 = GST); test: A/G assays
T12 construct: also called Prot

[21] = target: GST-MINT3 PDZ domain fusion protein (human MINT3 AA11-52; PDZ domain 1 of 1) (human, UniProt P08515 1-218 = GST); test: A/G assays
[22] = target: T13, GST-TAX2 PDZ domain fusion protein (human tax interaction protein 2 AA54-140; PDZ domain 1 of 1) (human, UniProt P08515 1-218 = GST); test: A/G assays
T13 construct: also called TX 2

[23] = target: T14, GST-TAX33 PDZ domain fusion protein (tax interaction protein 33 AA73-162; PDZ domain 1 of 1) (UniProt P08515 1-218 = GST); test: A/G assays
T14 construct: also called TX33

[24] = target: T15, GST-TAX43 PDZ domain fusion protein (human tax interaction protein 43 AA15-85; PDZ domain 1 of 1) (human, UniProt P08515 1-218 = GST); test: A/G assays
T15 construct: also called TX 43

[25] = target: T16, GST-PSD95 PDZ domain fusion protein (human post-synaptic density protein 95 AA387-724; PDZ domains 1-3 of 3) (human, UniProt P08515 1-218 = GST); test: A and G assays
[26] = target: T5, GST-41.8 kD PDZ domain fusion protein …; test: A/G assays; remark: listed apart in the source
[27] = target: T16, GST-PSD95 PDZ domain fusion protein …; test: A/G assays
[28] = target: T1, GST-NeDLG PDZ domain fusion protein …; test: A/G assays
[29] = target: T2, GST-SYN1a PDZ domain fusion protein …; test: A/G assays
[30] = target: T5, GST-41.8 kD PDZ domain fusion protein …; test: A assay
[31] = target: T7, GST-RGS12 PDZ domain fusion protein …; test: A assay
[32] = target: T9, GST-DVL1 PDZ domain fusion protein …; test: A assay
[33] = target: T1, GST-NeDLG PDZ domain fusion protein …; test: A and G assays

Sequence of GST-LIM PDZ domain fusion protein (Human LIM protein AA29-112; PDZ domain 1 of 1) (P08515 1-218, tags or fused parts left off): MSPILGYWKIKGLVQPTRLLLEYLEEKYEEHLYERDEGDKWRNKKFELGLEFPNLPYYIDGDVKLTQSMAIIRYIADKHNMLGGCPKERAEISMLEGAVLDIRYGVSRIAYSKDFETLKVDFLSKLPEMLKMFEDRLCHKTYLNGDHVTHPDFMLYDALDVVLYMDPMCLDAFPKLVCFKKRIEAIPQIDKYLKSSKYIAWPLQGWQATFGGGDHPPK
T8 sequence (P08515 1-218, tags or fused parts left off): as above
T10 sequence (P08515 1-218, tags or fused parts left off): as above
T5 sequence (P08515 1-218, tags or fused parts left off): as above
T9 sequence (P08515 1-218, tags or fused parts left off): as above
T2 sequence (P08515 1-218, tags or fused parts left off): as above
T6 sequence (P08515 1-218, tags or fused parts left off): as above
T14 sequence (P08515 1-218, tags or fused parts left off): as above
T4 sequence (P08515 1-218, tags or fused parts left off): as above
Sequence of GST-TIAM1 PDZ domain fusion protein (T-lymphoma invasion and metastasis inducing protein 1 AA1001-1088); PDZ 1 … (P08515 1-218, tags or fused parts left off): as above
Sequence of GST-LIMK2 PDZ domain fusion protein (human LIM domain kinase 2 AA185-275; PDZ domain 1 of 1) (P08515 1-218, tags or fused parts left off): as above
T11 sequence (P08515 1-218, tags or fused parts left off): as above
Sequence of GST-NOS1 PDZ domain fusion protein (human neuronal nitric oxide synthase; PDZ domain 1 of 1) (P08515 1-218, tags or fused parts left off): as above
T13 sequence (P08515 1-218, tags or fused parts left off): as above
T1 sequence (P08515 1-218, tags or fused parts left off): as above
Sequence of GST-prIL16 PDZ domain fusion protein (putative interleukin 16 precursor AA170-383; PDZ domains 1-2 of 2) (P08515 1-218, tags or fused parts left off): as above
T15 sequence (P08515 1-218, tags or fused parts left off): as above
T16 sequence (P08515 1-218, tags or fused parts left off): as above
Sequence of GST-MPP1 PDZ domain fusion protein (55 Kd erythrocyte membrane protein AA101-186; PDZ domain 1 of 1) (P08515 1-218, tags or fused parts left off): as above
Sequence of GST-AF6 PDZ domain fusion protein (af-6 protein AA985-1077; PDZ domain 1 of 1) (P08515 1-218, tags or fused parts left off): as above
T7 sequence (P08515 1-218, tags or fused parts left off): as above

Row | Binder | binding result [3] | binding result [4] | binding result [5] | binding result [6] | binding result [7] | binding result [8] | binding result [9] | binding result [10] | binding result [12] | binding result [13] | binding result [14] | binding result [15] | binding result [17] | binding result [18] | binding result [19] | binding result [20] | binding result [21] | binding result [22] | binding result [23] | binding result [24] | other results
1 | Biotin-LASKSAEEGKQIPDSLSTDL [DOCK2 C-terminal PL peptide AA40L, biotinylated] | no binding | no binding | no binding | no binding | no binding | no binding | no binding | no binding | no binding | no binding | no binding | no binding | no binding | no binding | no binding | no binding | no binding | no binding | no binding | no binding | binding result [1]: binds; binding result [2]: binds; binding result [11]: no binding; binding result [16]: no binding; binding result [25]: binds
2 | Biotin-DLGNMEENKKLEENNHKTEA [CD166 (CD6L) C-terminal PL peptide AA20L, biotinylated] | no binding | no binding | no binding | no binding | no binding | no binding | no binding | no binding | no binding | no binding | no binding | no binding | no binding | no binding | no binding | no binding | no binding | no binding | no binding | no binding | binding result [26]: no binding; binding result [16]: no binding; binding result [27]: no binding; binding result [28]: no binding; binding result [29]: no binding
3 | Biotin-ENLAPVTTFGKTNGYIA [CD148 (DEP-1) C-terminal PL peptide AA19L (ends GYIA), biotinylated] | no binding | no binding | no binding | no binding | no binding | no binding | no binding | no binding | no binding | no binding | no binding | no binding | no binding | no binding | no binding | no binding | no binding | no binding | no binding | no binding | binding result [26]: no binding; binding result [16]: no binding; binding result [27]: no binding; binding result [28]: no binding; binding result [29]: no binding
4 | Biotin-TTNNNPNSAVNIKKIFTDV [KV1.3 C-terminal PL peptide AA33L, biotinylated] | no binding | no binding | no binding | no binding | no binding | no binding | no binding | no binding | no binding | no binding |  | no binding | no binding | no binding | no binding | no binding | no binding | no binding | no binding | no binding | binding result [30]: binds; binding result [31]: binds; binding result [32]: binds; binding result [29]: no binding; binding result [25]: binds; binding result [33]: binds
